Tested on: Irr (Rhodobacter sphaeroides 2.4.1)
Assay: EMSA
Conditions: Mn2+ favored complex formation (1 mM MnCl2); Mn2+ in Kd assay not stated; EMSA: 20 mM TB pH 7.8, 5% glycerol, 1 mM DTT, 1 ug salmon sperm DNA, 0.1 mg/ml BSA, with or without 1 mM MnCl2, 15 ul, ~3 fmol probe, 30 min at 32 C; 6% PAGE …

| Substance | Kd [µM] |
| --- | --- |
| mbfA upstream region | 0.8 |
| ccpA upstream region | 0.9 |
